Laboratory results reported in paper PMC3826667, “S100A9 protein is a novel ligand for the CD85j receptor and its interaction is implicated in the control of HIV-1 replication by NK cells” (Retrovirology, 2013).
Each block holds one binder with its values, some of them ahead of it.

Target: T1, recombinant CD85j-Fc fusion protein (human, UniProt Q8NHL6 24-461)
T1 construct: CD85j (LILRB1, ILT2, LIR-1), human; also called CD85j fusion protein; LILRB1; source: bought: R&D System
Assay: ELISA; anti-GST mAb-coated wells, 4 ug/mL GST-tagged S100A8 or S100A9 captured, increasing amounts of CD85j-Fc, 2 h at 37°C; detected with HRP anti-human-Fc
Conditions: both partners purified

T1 sequence (Q8NHL6 24-461): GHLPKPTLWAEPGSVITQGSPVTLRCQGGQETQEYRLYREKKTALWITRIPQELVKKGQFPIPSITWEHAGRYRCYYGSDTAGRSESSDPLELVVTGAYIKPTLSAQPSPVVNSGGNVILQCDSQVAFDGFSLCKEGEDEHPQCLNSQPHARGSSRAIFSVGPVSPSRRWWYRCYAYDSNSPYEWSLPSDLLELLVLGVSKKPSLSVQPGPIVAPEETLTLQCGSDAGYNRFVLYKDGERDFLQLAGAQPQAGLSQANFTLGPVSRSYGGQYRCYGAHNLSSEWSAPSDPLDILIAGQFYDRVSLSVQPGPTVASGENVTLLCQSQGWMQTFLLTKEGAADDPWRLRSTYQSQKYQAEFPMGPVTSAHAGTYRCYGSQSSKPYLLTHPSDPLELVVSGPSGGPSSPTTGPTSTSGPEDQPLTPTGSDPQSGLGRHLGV

- binding result: binds
B1: full-length recombinant GST-tagged human S100A9 monomer (natural protein, UniProt P06702 1-114, looked up)
chain: MTCKMSQLERNIETIINTFHQYSVKLGHPDTLNQGEFKELVRKDLQNFLKKENKNEKVIEHIMEDLDTNADKQLSFEEFIMLMARLTWASHEKMHEGDEGPGHHHKPGLGEGTP
notes: S100A9, human, full-length recombinant, GST-tagged; source: bought: Tebu-bio

- binding result: binds
B2: recombinant GST-tagged human S100A8 monomer protein (natural protein, UniProt P05109 1-93, looked up)
chain: MLTELEKALNSIIDVYHKYSLIKGNFHAVYRDDLKKLLETECPQYIRKKGADVWFKELDINTDGAVNFQEFLILVIKMGVAAHKKSHEESHKE
notes: S100A8, human, recombinant, GST-tagged; source: bought: Tebu-bio
